# Laboratory results taken from the DeepSol protein solubility set.
# Assay: soluble on expression in E. coli; label from the status in PepcDB or PDB records
row,Sequence,soluble on expression in E. coli
1,MTIPTSYLNHTDAEAARKARATYRDGLVAPTSGIAPGFTQANMIVLPRDWAFDFLLYAQRNPKPCPVLDVSDPGSPTTLLAPGADLRTDLPLYRIWRDGKLAEETADATSAWAERDDLVAFLIGCSFTFETPMVEAGIEIRHMTDKSNVPMYLTNRPCRPAGRLKGNMVVSMRPIPASRVADAATISGRFPAVHGAPVHVGAPEQIGISDLSKPDFGDAVRIEPGEVPVFWACGVTPQAAVMASGVPFAITHAPGHMFITDIPDTAYHALEHHHHHH,soluble
2,MGSDKIHHHHHHMANLYDLKKFDLNLLVIFECIYQHLSISKAAESLYITPSAVSQSLQRLRAQFNDPLFIRSGKGIAPTTTGLNLHHHLEKNLRGLEQTINIVNKSELKKNFIIYGPQLISCSNNSMLIRCLRQDSSVEIECHDILMSAENAEELLVHRKADLVITQMPVISRSVICMPLHTIRNTLICSNRHPRITDNSTYEQIMAEEFTQLISKSAGVDDIQMEIDERFMNRKISFRGSSLLTIINSIAVTDLLGIVPYELYNSYRDFLNLKEIKLEHPLPSIKLYISYNKSSLNNLVFSRFIDRLNESF,not soluble
3,ALQAAADIDTVVFDLNGTLTQGKMVVKSLHITDKKYLRPIALLESQSDHPVAKIIKSYMEQQDTASTEPLEITSIDKSHHSGMKGIINGEVFIIGNKDMLAANGITSIDKPYDNPEKGSVYIVRGTTVIGQIALIDPLREDAIATVKQLKRLGKSVHICTGADQATAEKYAALLGIPKDNICANTVGAVTKKGEVSKTSYIQQLKQKGFKVAMVGDAANDATAIAYSDIGIAVKSSIGDSITEQHAGIVVQQGLLFPIATAFDVAQKTKQNIFQNLFVSLSYNSIIT,not soluble
4,MGSDKIHHHHHHMTNTIMEQEARTAPQKIAGQLAANADLMQQLGEKLRAFDPRFVMIVGRGSSDHAGVFAKYLFEIEVGVPTFAAAPSVASVYGKTLKLEGGLVIVISQSGRSPDILAQARMAKNAGAFCVALVNDETAPIKDIVDVVVPLRAGEEKAVAATKSYLATLSAILQLASAWTQSESLAAAVSSLPQALQTAVVAEPQLTPESVENVKNLVVLGRGLGYAVSKEIALKLKEVCSIHAEAFSSAEFLHGPVTLVEKKLTIVDVCIGDESYASHIEQIENVSQRGADLVHLNQTSTDIHPRVAPLALLQRFYIDVAAVAIARGIDPDQPAGLKKVTQTL,not soluble
5,MIVMTQVRLSELVAPSFYEIHNDIKHNRYTHYWLKGGRGSTKSSFVSIEIILGVMKDPNANAVALRKVKETIKDSVFEQLVWAIEKLKVTEYWEIKHNPMELTYLPTGQKILFRGADKPRKIKSIKVSRGYVKFIWYEEVDEFLGMEEIRIINQSLMRGGEQFVVFYTYNPPNRVNAWVNEEILIDRPDRKVHHSTYLTVPRDWLGEQFFIEAEHLKKVNEKAYRHEYLGEVTGTGGEVFTNVKARKINDEEIKAFDRIKRGLDFGYAVDPAAYIVCHFDKTRRRLYIFHEIFQVGLSNRKLAELIKKENKSNKLVVADSAEPKSIAELRGYGINIRGAKKGPDSVEYGIKFLQDLEEIIIDPERCPNTLREFVNYELEKDKDGNFKAEFPDKNNHTIDAVRYALEDDMRTGGLSILK,soluble
6,MVAEVSPKLAASPMKKPFGFRGKMGKWCCCCFPCCRGSGKNNMGAWRDHDDSAFTEPRYHVRREDLGKLHRAAWWGEVPRADLIVMLRGPGINKRDKKKRTALHLACANGNSEVVSLLLDRQCQLHVFDSKKRTALIKAVQCQEDECALMLLQHGTDPNLPDMYGNTALHYAVYNEDKLMAKTLLLYGADIESKNKGGLTPLLLAVHGQKQRMVKFLIKKKANLNALDRFGRTALILAVRCGSASIVSLLLQQNIDVFSQDVFGQTAEDYAVSSHHSIICQLLSDYKENQMPNNSSGNSNPEQDLKLTSEEEPQRLKGSENSQHEKVTQEPDINKDCDREVEEEMQKHGSNNVGLSENLTDGAAAGNGDGGLVPQRKSRKHENQQFPNTEIEEYHRPEKKSNEKNKVKSQIHSVDNLDDITWPSEIASEDYDLLFSNYETFTLLIEQLKMDFNDSASLSKIQDAVISEEHLLELKNSHYEQLTVEVEQMENMVHVLQK,not soluble
7,MASKPLQFVVVERKLNVGKNAGKVMQIARPTGRHRVDFRSFCERVSKSTTFNRQEVEAVLNYATEIAKDIVSNGDIVEFGDLGTLMPSFKSKAVEQGVKFNANVHIEKPVVLFQPSKKYFTLTDVSYEQTTARPKKGTKPAPKPDTGSGGNSGEGI,not soluble
8,MPGIDIVIVNWNSGNQLRECLRSIGNLVGEAEPLTVTVVDNASCDGSADGLPEPSCPLRVIRNRANLGFGRASNLGAREGSADYLLFLNPDTRLHPGALSIPLGFMESETGRHVGICGVQCLDETGGVARCCARFPTAWRLVGQALGLDRLFPRWIPPHFLGEWPHDSDRDVDQVIGAFFFVRRAVFEQLGGFDERFFVYYEDLDFALRARRAGWGSRYLAGARIFHRGGGVSRQISARRLHYLTHSKLRYARKHFAGIDAFLVSAAVLLLEPLARSAYALGRGRPGEFADTWKAFGGLYASLCRPGENGRLEHHHHHH,not soluble
9,MLQKYSIIVLCCSAVLARVPVAKNCPTGWTWFLRSRGGWCMKVFTEALNQPSAEAKCKAAEAVLAGIQNKEEVAWMSKELTGTMWIGTKRTPPCMNSGVTKQCSQITSYYWTDGSTVGVQGFYWNSGEPNNQGGQGCAKLITSSSVLDDVACTTELTNGYVCGKIATF,not soluble
10,SIEKARSAAAKEVQKMKTSDKAEATHYLQMGAYADRQSAEGQRAKLAILGISSKVVGYQAGHKTLYRVQSGNMSADAVKKMQDELKKHEVASLIRSIESK,not soluble
11,SLFQIGDNIVYPMHGAGIIEAIEEKEFLEEKQQYYVIRMSISNMTVMIPTSKILSSNIRPVTDILALKHIMHIFQHGESDRLLPWKQRYKINTDKIKTGEIQEGAEVVRDLMRMKKEKALNASEKKMLDNAYEFLISELEVIKGITEKQIKSFG,soluble
12,HTLNKALADTRANLTESVGNAGEVLHDITGVVSTPMPSENDSENLFDSVSNYPTGNKSDTHNAFGSSGKTAPMPYQSAYAPQQRSLSLRESRAAMNTYAELYKKTDDIDLELSRFEQARFGNMPSETPAPQTDTPLSDGIPSQSELPPLGFAIAQLLGIYILAQAEDSLLLIDMHAAAERVNYEKMKRQRQENGNLQSQRLLIPVTFAASHEECAALADYAETLAGFGLELSDMGGNTLAVRAVPAMLGKADVVSLAKDVLNELAQVGSSQTIEEHENRILATMSCHGSIRAGRRLTLPEMNALLRDMENTPRSNQCNHGRPTWVKLTLKELDALFLRGQ,not soluble
13,MGSDKIHHHHHHMLNQVYRLVSPRQFEVETVAEEVDADDLIVRPKFLSICHADTRYFFGQRSQAALRAKLPMALIHEAVGEVVYDPRNEYKPGTLVAMVPNTPVKKDSIIQENYLPSSRFRSSGYDGFMQEYVCLRRDRAITVPSDFDPHMAAFIEMVSVGVQALTKLESTMDEDQRVIGIWGDGNLGYITATLVKQIFPDSQLLVFGRHQSKLDYFSFADKTYLVDDIPADVKVSQALECTGGQGSEAAIQQIIQHIQPMGTAILMGVSENPVGIDTRSVLAEGLTLRGVSRSSREDFKRAVDILSSSPVTRERLQNLVGYVQKVSSIQDITNFFDSALTNYWGKEVMEWDV,not soluble
14,WNRRTEQLTDGLGAQIDPDSMTPASPADIDTLTAWRQGKIIFKDQPLASVVKEMNRYLPQPITITDHRLDQVRIAGVFNTGDSAAFLQALHKSIPVQVILHADGSTELSLPR,not soluble
15,MTTKEFEDTWAYNTIGSPFPDNPVRVKGQQNMYVALWYKFGKPIHGRAWNDNGNVECSFPYNKVELTGARDLGGQIQILTATEQDPTEQFKKTGFWYEWRPYKDRVNDQLLQLVRCGQSTPVIMKTKDGKDLLGYIDMSTEVAAVGVSGKSEQVAGGPIQDMLVLFRNVKAPPKGIKIYDDTWLDLKYRDPFPAARNPIAAGGRKVKSDDGTEMFQYVALWYEHGQPVFGRAYPDSADKTLANFGWGGQENAGAEIGSFQMLVVPDPDILGFEYKWIPYKEAKAGGPFKPLHVGECTPCLLKDANGTERLGNLHMGMEKATAGLAGKDSAVSGPAVGDFLVLCRN,soluble
16,MPSASASRKSQEKPREIMDAAEDYAKERYGISSMIQSHEKPDRVLVRVRDLTIQKADEVVWVRARVHTSRAKGKQCFLVLRQQQFNVQALVAVGDHASKQMVKFAANINKESIVDVEGVVRKVNQKIGSCTQQDVELHVQKIYVISLAEPRLPLQLDDAVRPEAEGEEEGRATVNQDTRLDNRVIDLRTSTSQAVFRLQSGICHLFRETLINKGFVEIQTPKIISAASEGGANVFTVSYFKNNAYLAQSPQLYKQMCICADFEKVFSIGPVFRAEDSNTHRHLTEFVGLDIEMAFNYHYHEVMEEIADTMVQIFKGLQERFQTEIQTVNKQFPCEPFKFLEPTLRLEYCEALAMLREAGVEMGDEDDLSTPNEKLLGHLVKEKYDTDFYILDKYPLAVRPFYTMPDPRNPKQSNSYDMFMRGEEILSGAQRIHDPQLLTERALHHGIDLEKIKAYIDSFRFGAPPHAGGGIGLERVTMLFLGLHNVRQTSMFPRDPKRLTP,soluble
17,MCAKIALLLVLVGAASAAVLPDKFYGTFDLDHSENFDEYLTAKGYGWFTRKLVTFATFKKVFTKTSNKNLFDYSNLTSKKDVHYKNVQLGKAFQGEGLDSTKHEITFTLKDGHLFEHHKPLEGGDAKEETYEYLFDKEFLLVRMSFNGVEGRRFYKRLP,not soluble
18,METKYLRINPADNVAVAIVNLPAGEHLSVDGIEITLNEDIPAGHKFALKDFAEGENVIKYGYPIGHARMAKKQGDWMNETNIKTNLAGLLEYTYHPTQVTLDIPHKNLTFKGYRRKNGDVGVRNEIWIIPTVGCVNGIIGQLAEGLRRETEGKGVDAIVAFPHNYGCSQLGDDHENTKKILRDMVLHPNAGAVLIVGLGCENNQPDVFREFLGDYDQDRVKFMVTQKVGDEYEEGMDILRDLYAKASKDERTEVPLSELRVGLKCGGSDGFSGITANPLLGMFSDFLIAQGGTSVLTEVPEMFGAETILMNRCENKDLFEQTVHLINDFKEYFLSHGEPVGENPSPGNKAGGISTLEEKALGCTQKCGKSYVSGVMPYGERLQKKGLNLLSAPGNDLVAATTLAASGCHMVLFTTGRGTPFGTFVPTMKISTNSTLAKNKPGWIDFNAGVIVENEPMEKTCERFIEYVIKVASGEFVNNEKKGYREIAIFKTGVTL,not soluble
19,MSGCDAWEGDCCSRRCGAQDKEHPRYLIPELCKQFYHLGWVTGTGGGISLKHGDEIYIAPSGVQKERIQPEDMFVYDINEKDISGPSPSKKLKKSQCTPLFMNAYTMRGAGAVIHTHSKAAVMATLLFPGREFKITHQEMIKGIKKCTSGGYYRYDDMLVVPIIENTPEEKDLKDRMAHAMNEYPDSCAVLVRRHGVYVWGETWEKAKTMCECYDYLFDIAVSMKKVGLDPSQLPVGENGIV,soluble
20,GAMGGMHLVGVLDIAKDILKANKRLADKNRKLLNKHGVVAFDFMGAIGSGKTLLIEKLIDNLKDKYKIACIAGDVIAKFDAERMEKHGAKVVPLNTGKECHLDAHLVGHALEDLNLDEIDLLFIENVGNLICPADFDLGTHKRIVVISTTEGDDTIEKHPGIMKTADLIVINKIDLADAVGADIKKMENDAKRINPDAEVVLLSLKTMEGFDKVLEFIEKSVKEVK,soluble
